The nanobody polyreactivity screen of Harvey et al. (2022)

Test: yeast display, Sf9 membrane polyspecificity reagent, FACS + sequencing; frameworks hold sequencing errors
In short: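 In a synthetic yeast display library (Saccharomyces cerevisiae BJ5465), nanobody expression was induced with galactose for 36–48 hours. FACS gates were set low and high (top ~1%) using anti-HA fluorescence for expression and streptavidin fluorescence for binding of the Sf9 membrane reagent. Each polyreactivity label is drawn from the gate of origin.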

Sequence | polyreactivity (PSR sort gate)
QVQLVESGGGLVQAGGSLRFSSAASGSIFQSYPMGLYRPAPGKERELVAAITRSGGRTYYADSVKGRFTISRDNAKNTVYLQMNSLKPEDTAVYYCAAFGWGYGYWGQGTQVTVSS | high polyreactivity
QVQLVESGGGLVQAGGSLRLSCAASGSIIVWNAMGWYRQAPGKERELVAAITWSGVTTYYADSVKGRFTISRDNAKNTVYLQMNSLKPEDTAVYYCAAGRTRRKFDYWGQGTQVTVSS | low polyreactivity
QVQLVESGGGLVQAGGSLRLSCAASGSTFTDYTMGWYRQAPGKERELVARIRSRGARTYYADSVKGRFTISRDNAKNTVYLQMNSLKPEDTAVYYCAAAGVRSYAGDYWGQGTQVTVSS | high polyreactivity
QVQLVESGGGLVQAGGSLRLSCAASGRIFVRNAMGWYRQAPGKERELVAAISRSGGSTSYADSVKGRFTISRDNAKNTVYLQMNSLKPEDTAVYYCAARYARYQYQYDYWGQGTQVTVSS | high polyreactivity
QVQLVESGGGLVQAGGSLRLSCAASGGTFSPYDMGWYRQAPGKERELFASITGSGGSTYYADSVKGRFTISRDNAKNTVYLQMNSLKPVDTAVYDCATQPLTWSSYRWDWRAQFDHWGQGTQVTVSS | low polyreactivity
QVQLVESGGGLVQAGGSLRLSCAASGIILSYYVMGWYRQAPGKERELVAAISLRGGSRTYYADSVNGRFTISRDNAKNTVYLQMNSLKPEDTAVYYCAKLRWVYGRQTLMDYWGQGTQVTVSS | high polyreactivity
QVQLVESGGGLVQAGGSLRLSCAASGSTFRSNAMGWYRQAPGKEGELVAAISSRVGTTNYADSVKGRFTISRDNAKNTVYLQMNSLKPEDTAVYYCAAQGWRYYRTVVPMDYWGQGTQVTVSS | low polyreactivity
QVQLVESGGGIVQAGGSLRLTCAASGSTFEIYAMGWYRQAPGKERELVAAISSGGSTNYADSVKGRFTISRDNAKNTVYLQMNSLKPDDTAVYDCAAVLYSRLYWYRLDYWGQGTQVTVSS | low polyreactivity
QVQLVESGGGLVQAGGSLRLSCAASGFTFGGYAMGWYRQAPGKERELVAAISGRGGRTYYADSVKGRFTISRDNAKNTVYLQMNSLKPEDTAVYYCAAPTNHWTRLSGDYWGQGTQVTVSS | high polyreactivity
QVQLVESGGGLVQAGGSLRLSCAASGGIFSYYTMGWYRQAPGKERELVARITTGGSTNYADSVKGRFTISRDNAKNTVYLQMNSLKPEDTAVYYCAATGPKYWLTWSSYTRYDYWGQGTQVTVSS | high polyreactivity
QVQLVESGGGLVQAGGSLRLSCAASGSIFYWYAMGWYRQAPGKERELVAAISSGGSTNYADSVKGRFTISRDNAKNTVYLQMNSLKPEDTAVYYCNADIRSFYWEYYTGLDSWGQGTQVTVSS | low polyreactivity
QVQLVESGGGLVQAGGSLRLSCAASGSIFRAYAMGWYRQAPGKERELVAAISWGGGSTSYADSVKGRFTISRDNAKNTVYLQMNSLKPEDTAVYYCNKVSFSKRRDYYWGQGTQVTVSS | high polyreactivity
QVQLVESGGGLVQEGGSLRISCAASGRIFDSNAMVWYRQAPGKERELVAAISNGGTTNYADSVKGRFTISRDNAKNTVYLQMNSLKPADTAVYYCAARGRVVWYNGGSYRFYYWGQGTQVTVSS | high polyreactivity
QVQLVESGGGLVQAGGSLRLSCADSGSTFLVYSMGWYRQAPGKERELVAVIDNGGDTYYADSVKGRFTISRDNAKNTVYLQMNSLKPEDTEVYYCAADLSYLGYWEYDYWGQGSQVTVSS | low polyreactivity
QVQLVDSGGGLVQAGGSLRLSCAASGIILVNNAMGWYRQAPGKEREFVAAIRYSAGSTYYADSVKGRFTISRDNAKTTVYLQMNSLKPEDTAVYYCNAVRYPTRGYYPYRYGYWGQGTQVNVSS | high polyreactivity
QVQLVESGGGLVQAGGSLRLSCAASGRILGQYVMGWYRQAPGKERELVASIRSGGVSTYYADSVKGRFTISRDNAKNTVYLQMNSLKPEDTAVYYCAKGSPGPRRYKFDYWGQGTQVTVSS | low polyreactivity

Sequence | polyreactivity (PSR sort gate)
QVQLVESGGGLVQAGGSLRLSCAASGSTIYFNGMGWYRQAPGKERELVAAITSGGSTDYADSVKGRFTISRDNAKNTVYLQMNSLKPEDTAVYYCAADHYGRYDYWGQGTQVTVSS | low polyreactivity
QVQLVESGGGLVQAGGSLRLSCAASGSTFYKYAMGWYRPAPGKERELVAAISRGGSTYYADSVKGRFTISRDNAKNTVYLQMNSLKPEDTAVYYCAALYGLGRPQDSTFLFDYWGQGTQVTVSS | low polyreactivity
QVQLVESGGGLVQAGGSLRLSCAASGFIFAYNAMGWYRQAPGKERELVAAISWSGGSTYYADSVKGRFTISRDNAKNTVYLQMNSLKPEYTAVYYCNAKYLGRRWDGNYNYWGQGTQVTVSS | high polyreactivity
QLQLVESGGGLVQAGGSLRLSCAASGFIFADYAMGWYRQAPGKERELVAAISSNGGSTYYADSVKGRFTISRDNAKNTVYLQMNSLKPEDTAVYYCAVRHRYYKDYEFDYWGQGTQVTVSS | high polyreactivity
QVHLVESGGGLVQAGGSLRLSCAASGRTIGWNVMGWYRQAPGKERELVAAISGSGITYADSVKGRFTISRDNAKNTVYLQMNSLKPEDTAVYYCAARARRYTDEYDYWGQGTQVTLSS | low polyreactivity
QVQLVESGGGLVQAGGSLRLSCAASGRIFYYNAMGWYRQAPGKERELVAAIRGGGSTNYADSVKGRFTISRDNAKNTVYLQMNSLKPEDTAVYYCAAPWTQILDYWGQGTQVTVSS | low polyreactivity
QVQLVESGGGLVQAGGSLRLSCDASGSTFYYNAMGWYRQAPGKERELVADISRGGSTYYADSVKGRFTISRDNAKNTVYLQMNSLKPEDTAVYDCAAQTYLLSQWWWFDIDYGYWGQGTQVTVSS | low polyreactivity
QVQLVESGGGLVQAGGSLRLSCAASGFTYGRYAMGWYRQAPRKERELVAAISFSGGRTYYADSVKGRFTISRDNAKNTVYLQMKSLKPEDTAVYYCAARRRQEHVGRSSYARYDYWGQGTQVTVSA | high polyreactivity
QVQLVESRGGLVQAGGRLRLSCAASGLIFYKYAMGWYRPAHGKERQLVAAITSGGGSTYYADSVKGRFTISRDNAKNTVYLQKNSLKPEDSAVYYCAATRPATYAAYDYWGHGTQVTVSS | high polyreactivity
QVQLVESGGGLGQAGGSLRLSCAASGRTFGDYVMGWYRQAPGKEREFVAAITDSGDRTYYADSVKGRFTISRDNAKNTVYLQMNSLKPEDTAVYYCNDEIWDWYYWYAYWGQGTQVTVSS | high polyreactivity
QVQLVESGGGLVQAGGSLRLSCAASGSTFYEYAMGWYRQAPGKERELVAAISSGGSTYYADSVKGRFTISRDNAKNTVYLQMNSLKPEDTAVYYCNADCQTYGGEYDYWGQGTQVTVSS | low polyreactivity
QVQVVESGGGLVQAGGSLRLSCAASGFIFLRYDMGWYRQAPGKERELVAAINGNGGSTYYADSVKGRFTISRDNAKNTFYLQMNSLKPEDTAVYYCNARRRTYARNYGYWGHGTQVTVSS | high polyreactivity
QVQLVESGGGLVQAGGSLRLSCAASGRTFSTYAMGWYRQATGKERELVAAIRSGGSTYYADSVKGRFTISRDNAKNTVYLQMNSLKPEDTAVYYCNALPRPSIFRYDYWGQGTQVTVSS | high polyreactivity
QVQLVESGGGLVQAGGSLRLSCAASGFIFRGNAMGWYRQAPGKERELVASISRTGDTTYYADSVKGRFTISRDNAKNTVYLQMNSLKPEDTAVYYCARRSRVGYPLDSWGQGTQVTVSS | high polyreactivity
QVQLVESGGGLVQAGGSLRLSCAASGRTLAPYAMGWYRQAPGKARELVADIDRGGGSTYYADSVKGSFTISRDNAKNTVYLQMNSLKPEDTAVYYCNVDEPGVLVAYSLDFWGQGSQVTVSS | low polyreactivity
